For data set [1], the system named is HeLa Kyoto. Description: solubility in G1/S (NP-40 vs SDS abundance) (log2 ratio); higher = more soluble. As to conditions: cell cycle stage: G1/S.
Data set [2] deals with HeLa Kyoto. Description: melting temperature (median over replicates), in situ; higher = more thermally stable.
The test system of data set [3] is HeLa Kyoto. Put plainly: solubility change mitosis vs G1/S (difference of NP-40 vs SDS log2 ratios) (log2 ratio difference); higher = more soluble in mitosis.
For data set [4], the system named is HeLa Kyoto. Description: thermal stability score vs G1/S (z-score of summed log2 fold changes over temperatures); higher = more thermally stable than in G1/S.
Setting [5] is: cell cycle stage: early G1 (4.5 h after nocodazole release).

We go through six substances from the supplement of paper PMC5998384.
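Throughout, for melting temperature (median over replicates), in situ: HeLa Kyoto cells synchronized by double thymidine or nocodazole block, proteins quantified by TMT10plex mass spectrometry, three independent biological replicates.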
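Throughout, for solubility change mitosis vs G1/S (difference of NP-40 vs SDS log2 ratios): synchronized HeLa Kyoto cells (double thymidine block for G1/S, nocodazole release for mitosis), protein amounts in NP-40 versus SDS lysates quantified by mass spectrometry, three biological replicates.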
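Throughout, for solubility in G1/S (NP-40 vs SDS abundance): HeLa Kyoto cells arrested at G1/S by double thymidine block, proteins quantified by TMT10plex mass spectrometry in mild NP-40 versus SDS extracts, three biological replicates.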
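Throughout, for thermal stability score vs G1/S (z-score of summed log2 fold changes over temperatures): synchronized HeLa Kyoto cells, proteins quantified by TMT10plex mass spectrometry, three biological replicates, mitosis taken 0.5 h after nocodazole release, G1/S directly after double thymidine block.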

As for “MFKKFDEKENVSNCIQLKTSVIKGIKNQLIEQFPGIEPWLNQIMPKKDPVKIVRCHEHIEILTVNGELLFFRQREGPFYPTLRLLHKYPFILPHQQVDKGAIKFVLSGANIMCPGLTSPGAKLYPAAVDTIVAIMAEGKQHALCVGVMKMSAEDIEKVNKGIGIENIHYLNDGLWHMKTYK [MCTS1]”, in data set [1], the “solubility in G1/S (log2)” value was determined as 0.267. Further, the values for the melting temperature in data set [2] (cell cycle stage: G1/S) and in data set [2] (cell cycle stage: mitosis) were 54.8 °C and 54.5 °C, respectively. Besides, the “solubility change mitosis (log2)” value in data set [3] is -0.0597. Further, the thermal stability score in data set [4] (setting [5]) is -1.29; in data set [4] (cell cycle stage: mitosis), -1.6.

Regarding BOD1L1, the “solubility in G1/S (log2)” value in data set [1] was -0.161. The melting temperature in data set [2] (cell cycle stage: G1/S) and in data set [2] (cell cycle stage: mitosis) was 56 °C in each case. Further, the “solubility change mitosis (log2)” value in data set [3] stood at 0.0131. In addition, the thermal stability score was -3.05 in data set [4] (setting [5]) and -3.12 in data set [4] (cell cycle stage: mitosis).

Take “MAQKKYLQAKLTQFLREDRIQLWKPPYTDENKKVGLALKDLAKQYSDRLECCENEVEKVIEEIRCKAIERGTGNDNYRTTGIATIEVFLPPRLKKDRKNLLETRLHITGRELRSKIAETFGLQENYIKIVINKKQLQLGKTLEEQGVAHNVKAMVLELKQSEEDARKNFQLEEEEQNEAKLKEKQIQRTKRGLEILAKRAAETVVDPEMTPYLDIANQTGRSIRIPPSERKALMLAMGYHEKGRAFLKRKEYGIALPCLLDADKYFCECCRELLDTVDNYAVLQLDIVWCYFRLEQLECLDDAEKKLNLAQKCFKNCYGENHQRLVHIKGNCGKEKVLFLRLYLLQGIRNYHSGNDVEAYEYLNKARQLFKELYIDPSKVDNLLQLGFTAQEARLGLRACDGNVDHAATHITNRREELAQIRKEEKEKKRRRLENIRFLKGMGYSTHAAQQVLHAASGNLDEALKILLSNPQMWWLNDSNPETDNRQESPSQENIDRLVYMGFDALVAEAALRVFRGNVQLAAQTLAHNGGSLPPELPLSPEDSLSPPATSPSDSAGTSSASTDEDMETEAVNEILEDIPEHEEDYLDSTLEDEEIIIAEYLSYVENRKSATKKN [NUB1]”: in data set [1], the “solubility in G1/S (log2)” value was -0.169. The values for the melting temperature in data set [2] (cell cycle stage: G1/S) and in data set [2] (cell cycle stage: mitosis) were 47.9 °C and 50.3 °C, respectively. Moreover, in data set [3], the “solubility change mitosis (log2)” value was -0.203. Also, the thermal stability score in data set [4] (setting [5]) was determined as 1.06; in data set [4] (cell cycle stage: mitosis), 1.85.

In the case of “MASPVAAQAGKLLRALALRPRFLAAGSQAVQLTSRRWLNLQEYQSKKLMSDNGVRVQRFFVADTANEALEAAKRLNAKEIVLKAQILAGGRGKGVFNSGLKGGVHLTKDPNVVGQLAKQMIGYNLATKQTPKEGVKVNKVMVAEALDISRETYLAILMDRSCNGPVLVGSPQGGVDIEEVAASNPELIFKEQIDIFEGIKDSQAQRMAENLGFVGPLKSQAADQITKLYNLFLKIDATQVEVNPFGETPEGQVVCFDAKINFDDNAEFRQKDIFAMDDKSENEPIENEAAKYDLKYIGLDGNIACFVNGAGLAMATCDIIFLNGGKPANFLDLGGGVKEAQVYQAFKLLTADPKVEAILVNIFGGIVNCAIIANGITKACRELELKVPLVVRLEGTNVQEAQKILNNSGLPITSAIDLEDAAKKAVASVAKK [SUCLG2]”, the “solubility in G1/S (log2)” value in data set [1] is 0.383. Moreover, the results for the melting temperature in data set [2] (cell cycle stage: G1/S) and in data set [2] (cell cycle stage: mitosis) were 51.3 °C and 51.2 °C, respectively. Besides, the “solubility change mitosis (log2)” value in data set [3] is -0.104. Further, the thermal stability score came out at 0.0772 in data set [4] (setting [5]) and 0.0477 in data set [4] (cell cycle stage: mitosis).

For “MAVEELQSIIKRCQILEEQDFKEEDFGLFQLAGQRCIEEGHTDQLLEIIQNEKNKVIIKNMGWNLVGPVVRCLLCKDKEDSKRKVYFLIFDLLVKLCNPKELLLGLLELIEEPSGKQISQSILLLLQPLQTVIQKLHNKAYSIGLALSTLWNQLSLLPVPYSKEQIQMDDYGLCQCCKALIEFTKPFVEEVIDNKENSLENEKLKDELLKFCFKSLKCPLLTAQFFEQSEEGGNDPFRYFASEIIGFLSAIGHPFPKMIFNHGRKKRTWNYLEFEEEENKQLADSMASLAYLVFVQGIHIDQLPMVLSPLYLLQFNMGHIEVFLQRTEESVISKGLELLENSLLRIEDNSLLYQYLEIKSFLTVPQGLVKVMTLCPIETLRKKSLAMLQLYINKLDSQGKYTLFRCLLNTSNHSGVEAFIIQNIKNQIDMSLKRTRNNKWFTGPQLISLLDLVLFLPEGAETDLLQNSDRIMASLNLLRYLVIKDNENDNQTGLWTELGNIENNFLKPLHIGLNMSKAHYEAEIKNSQEAQKSKDLCSITVSGEEIPNMPPEMQLKVLHSALFTFDLIESVLARVEELIEIKTKSTSEENIGIK [GLMN]”, in data set [1], the “solubility in G1/S (log2)” value was 0.0671. Moreover, the melting temperature in data set [2] (cell cycle stage: G1/S) was found to be 52.2 °C; in data set [2] (cell cycle stage: mitosis), 51.3 °C. In addition, in data set [3], the “solubility change mitosis (log2)” value is -0.21. For the same substance, the thermal stability score in data set [4] (setting [5]) stood at 0.45; in data set [4] (cell cycle stage: mitosis), 0.785.

For the substance “MSELEQLRQEAEQLRNQIQDARKACNDATLVQITSNMDSVGRIQMRTRRTLRGHLAKIYAMHWGYDSRLLVSASQDGKLIIWDSYTTNKMHAIPLRSSWVMTCAYAPSGNYVACGGLDNICSIYNLKTREGNVRVSRELPGHTGYLSCCRFLDDSQIVTSSGDTTCALWDIETAQQTTTFTGHSGDVMSLSLSPDMRTFVSGACDASSKLWDIRDGMCRQSFTGHVSDINAVSFFPNGYAFATGSDDATCRLFDLRADQELLLYSHDNIICGITSVAFSKSGRLLLAGYDDFNCNVWDTLKGDRAGVLAGHDNRVSCLGVTDDGMAVATGSWDSFLRIWN [GNB4]”, in data set [1], the “solubility in G1/S (log2)” value was -0.287. Also, the figures for the melting temperature in data set [2] (cell cycle stage: G1/S) and in data set [2] (cell cycle stage: mitosis) were 55.6 °C and 56.7 °C, respectively. Also, in data set [3], the “solubility change mitosis (log2)” value was -0.13. Besides, the values for the thermal stability score in data set [4] (setting [5]) and in data set [4] (cell cycle stage: mitosis) were -1.5 and -0.567, respectively.
